# Laboratory results reported in the nanobody polyreactivity screen of Harvey et al. (2022).
# Test: yeast display, Sf9 membrane polyspecificity reagent, FACS + sequencing; frameworks hold sequencing errors
# Outline: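 Synthetic nanobody libraries on Saccharomyces cerevisiae BJ5465 were galactose-induced for 36–48 hours, stained 1 hour at 4 °C with 10% biotinylated, detergent-solubilized Sf9 membrane reagent and enriched on streptavidin microbeads. FACS then separated cells into low and high (top ~1%) gates by anti-HA (expression) and streptavidin (reagent binding) fluorescence. Genes were colony-PCR amplified, MiSeq 2 × 250 sequenced and CDR-length filtered. A clone's polyreactivity label is that of its gate of origin.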
row,Sequence,polyreactivity (PSR sort gate)
1,QVQLVESGGGLVQAGGSLRLSCAASGIILHYYTMGWYRQAPGKERELVAAITFSGGGTYYADSVKGRFTISRDNAKNTVYLQMNSLKPEDTAVYYCAAPWRYYGHDYWGQGTQVTVSS,low polyreactivity
2,QVQLVESGGGLVQAGGSLRLSCAASGIILPYYVMGSYRPAPGKERELVAAISSGGRTYYADSVKGRFTISRDNAKNTVYLQMNSLKPEDTAVYYCNAYFTGKWYDYWVQGTQVTVSS,high polyreactivity
3,QVQLVESGGGLVQAGGSLRLSCAASGIILRRYAMGWYRQAPGKERELVARISYRGGRTNYADSVKGRFTISRDNAKNTFYLEMNSLKPEDTAVYYCDAVDWYYHEGTAYNYWGQGTQVTVSS,high polyreactivity
4,QVQLVESGGGLVQAGGSLRLSCAASGIILSENDMGWYRQAPGKERELVAAITSSGSTSYADSVKGRFTISRDNAKNTVYLQMNSLKPEDTAVYYCAADYLNPFPPYQYWKQSYDYWGQGTQVTVSS,low polyreactivity
5,QVQLVESGGGLVQAGGSLRLSCAASGIILYTYAMGWYRQAPGKEREFVAGIRWSGSSTYYADSVKGRFTISRDNAKNTVYLQMNSLKPEDTAVYYCATGQPYGPLYSLGYGYWGQGTQVTVSS,high polyreactivity
6,QVQLVESGGGLVQAGGSLRLSCAASGIILYYNALGWYRQAPGKERELLAAITTSGVSTYDADSVKGRFTISRDNAKNTVYLQMKSLKPEDTAVYYCNARARARYFYEMDYWGQGTQVTVSS,low polyreactivity
7,QVQLVESGGGLVQAGGSLRLSCAASGIISGDYAMGWYRQAPGKERELVARITSGDSTNYADSVKGRFTISRDNAKNTVYLQMNSLKPEDTAVYYCAAKRYVFQNDYWGQGTQVTVSS,low polyreactivity
8,QVQLVESGGGLVQAGGSLRLSCAASGIISYKNVMGWYRQAPGKERELVAAISGRGGSTYYADSVKGRFTISRDNAKNTVYLQMNSLKPEDTAVYYCAKYPGISGYNYWGQGTQVTVSS,high polyreactivity
9,QVQLVESGGGLVQAGGSLRLSCAASGIISYLNAMGWYRQAPGKERELVAAITGGGRTNYADSVKGRFTFSRDNAKNTVYLQMNSLKPEDTAVYYCNAYSSNYRYWARRGRPYNYWGQGTQVTVSS,high polyreactivity
10,QVQLVESGGGLVQAGGSLRLSCAASGIIVAWYAMGWYRQAPGKERELVARISSGASPNYADSVKGRFTISRDNAKNTVYLQMNSLKPEDTSVYYCAAVSHPFRRSRYDYWRQGTQVTVSS,high polyreactivity
11,QVQLVESGGGLVQAGGSLRLSCAASGIIVSYYAMGWYRQAPGKERELVAAITSGGSTNYADSVKGRFTISRDNAKITVYLQMNSLKPEDTAVYYCAAERGDTAYRKYDYWGQGTQVTVSS,low polyreactivity
12,QVQLVESGGGLVQAGGSLRLSCAASGIIYNPNAMGWYRQAPGKERELVAVISISDSTNYADSVKGRFTISRDNAKNTVYLQMNSLKPEDTAVYDCATASAGTLSVTYYHWYDDWGQGTQVTVSS,low polyreactivity
13,QVQLVESGGGLVQAGGSLRLSCAASGILFSAHAMGWYRQAPGKERELVAAISKSGSRTYYADSVKGRFTISRDNAKNTVYLQMNSLKPEDTAVYYCNAVTYSRRYAYYYWGQGTQVTVSS,high polyreactivity
14,QVQLVESGGGLVQAGGSLRLSCAASGINLNNYPLGSYRQAPGKDRELVAAITSSGTRTYYADSVKGRFTISRDNAKINVYLQMNSLKPEDTAVYYCAAQPVYDLWGQGTQVTVSS,high polyreactivity
15,QVQLVESGGGLVQAGGSLRLSCAASGINLRRYAMGWYRQAPGKERELVARISYRGGRTNYADSVKGRFTISRDNAKNTVYLQMNSLKPEDTAVYYCAAVAWYYHEGTAYNYWGQGTQVTVSS,high polyreactivity
16,QVQLVESGGGLVQAGGSLRLSCAASGIPFEGYAMGWYRQAPGKERELVAAIRSSGTSTYYADSVKGRFTISRDTAKNTVYLQMNSLKPEDTAVYYCNRARSSSRYDYWGQGTQVTVSS,low polyreactivity
17,QVQLVESGGGLVQAGGSLRLSCAASGIPFKGYAMGWYRQAPGQERELVAASNSRGGTYADSVKGRFTISRDNAKNTVYLQRNSLKPEDTAVYYCGVSAVRPLPLDSGYDYWGQGSQVTVSS,low polyreactivity
18,QVQLVESGGGLVQAGGSLRLSCAASGIPRNTMGWYRQAPGKERELVASISTSGGSTYYADSVKGRFTISRDNAKNTVYLPMNSLKPEDTAVYYCAKKGYASRYFIYDYWGQGTQVTVSS,low polyreactivity
19,QVQLVESGGGLVQAGGSLRLSCAASGIRFAQYTMGGYRQAHGKESELVAAINRNGGSTYYADSVKGRFTISRDNAKNTVYLQMNSLKPEDTPVYYCNADALGFRYDYWGQGTQVTVSS,low polyreactivity
20,QVQLVESGGGLVQAGGSLRLSCAASGISIRSYAMGWYRQAPGKERELVAAIRSGGSTSYADSVKGRFTISRDNAKNTVYLLMNSLKPEDTAVYYCAAGGYVPLPDITFWKFGYWGQGTQVNVSS,low polyreactivity
21,QVQLVESGGGLVQAGGSLRLSCAASGITFADNAMGWYRQAPGKERELVASISKSSGSTYYADSVKGRFTISRDNAKNTVYLQMNSLKPEDTAVYYCATDPYVRRSPSWYDYWGQGTQVTVSS,low polyreactivity
22,QVQLVESGGGLVQAGGSLRLSCAASGITFAFYAMGWYRQAPGKERELVAAISWSGTRTYYADSVKGRFTISRDNAKNTVYLQMNSLKPEDSAVYYCAADYQAGDKLYDYWGQGTQVTVSS,low polyreactivity

row,Sequence,polyreactivity (PSR sort gate)
1,QVQLVESGGGLVQAGGSLRLSCAASGITFAFYDMGWYRQAPGKERELVAAISYSGGGTYYADSVKGRFTISRDNAKNTVYLQMNSLKPEDTAVYYCAADPKTHPLFGEDYWGQGTQVTVSS,low polyreactivity
2,QVQLVESGGGLVQAGGSLRLSCAASGITFAGYAMGWYRQAPGKERELVAAITRGGGITYYADSVKGRFTISRDNAKNTVYLQMNSLKPEDTPVDYCNAVVTSAAGYFPLLYDYWGQGTQVTVSS,high polyreactivity
3,QVQLVESGGGLVQAGGSLRLSCAASGITFAGYAMRWYRQAPGKERELVASMTWGGGRTYYADSVKRRFTISRDNAKNTVYLQMNSLKPEDTAVYYCATRRRPQYNKYDYWGQGTQVTVSS,high polyreactivity
4,QVQLVESGGGLVQAGGSLRLSCAASGITFARYAMGLYRQAPGKERELVAAISWSGGSTYYADSVKGRFTISRDNAKNTVYLQMNSLKPEDTAVYYCAAGGRVRRNKFDYWGQGTQVTVSS,high polyreactivity
5,QVQLVESGGGLVQAGGSLRLSCAASGITFASNTMGCYIQAPGKERELVAAITRGDNTYYADSVKGRFTISRDNAKNTVYLQMNSLKAEDPAVYYCATEGYQIQYEHDYWGQGTQVTVSS,low polyreactivity
6,QVQLVESGGGLVQAGGSLRLSCAASGITFASYAMGWYRQAPGKERELVAAISTRSGGTYYADSVKGRFTISRDNAKNTVYLQMNSLKPEETAVYYCAAYNVIYTRRMYYWGQGTQVTVSS,high polyreactivity
7,QVQLVESGGGLVQAGGSLRLSCAASGITFATNAMGWYRQAPGKERELVAAISWSGGSTYYADSVKGRFTISRDNAKNTVYLQMNSLKPEDTAVYYCATGYSVWYDYWGQGTQVTLSS,low polyreactivity
8,QVQLVESGGGLVQAGGSLRLSCAASGITFAWYAMGWYRQAPGKEREFVAAITGSGGRTYYADSVKGRFTISRDIAKNTVYLQMNSLKPEDTAVYYCATASSVSGARYDYCGQGTQVTVSS,high polyreactivity
9,QVQLVESGGGLVQAGGSLRLSCAASGITFAYNAMGWYRQAPGKERELVARITSGGRTYYADSVKGRFTISRDNAKNTVYLQMKSLKPEDTAVYYCNAKEGSRYRKYDYWGPGTQVTVSS,low polyreactivity
10,QVQLVESGGGLVQAGGSLRLSCAASGITFAYNTMGWYRQAPGKERELVAGISVSGASTYYADSVKGRFTISRDNAKNSVYLQMNSLKPEDTAVYYCAAPRWVANQYREYDYWGQGTQVTVSS,high polyreactivity
11,QVQLVESGGGLVQAGGSLRLSCAASGITFAYYAMGWYRQAPGKERELVAAITRRGSSTYYADSVKGRFTISRDNAKNTVYLQMNSLKPEDTAVYYCAAVAYGRERYDYWGQGTQVTVSS,high polyreactivity
12,QVQLVESGGGLVQAGGSLRLSCAASGITFAYYARGWYRQAPGKERELVAAITGDGGYTYYADSVKGRFTISRDNAKNTVYLQMNSLKPEDTAVYYCNAELSDYRYDWWDYDYWGQGTQVTVSS,high polyreactivity
13,QVQLVESGGGLVQAGGSLRLSCAASGITFDGNAMGWYRQAPGKERELVAAITSGGSTYYADSVKGRFTISRDNAKNTVYLQMNSLKPEDTAVYYCAKEPPPVKGDYWGQGTQVTVSS,low polyreactivity
14,QVQLVESGGGLVQAGGSLRLSCAASGITFDGYAMGWYRQAPGKERELVAAIRSSGGSTYYADSVKGRFTISRDNAKNTVYLQMNSLKPEDTAVYYCATDHAQKFRYRSPREYWGQGTQVTVSS,low polyreactivity
15,QVQLVESGGGLVQAGGSLRLSCAASGITFDGYAMGWYRQAPGKESELVAGISWSGARSYYADSVKGRFTISRDNAKYTVYLHMNSLKPEDTAVYYCNKVSLRNHGGYDYWGQGTQVTVSS,high polyreactivity
16,QVQLVESGGGLVQAGGSLRLSCAASGITFDKYAMGWYRQAPGKERELVAAISGSDGSTYYADSVKGRFTISRDNAKNTVYLQMNSLKPEDTAVYYCAAESEYAGTYEYDYWGQGTQVTVSS,low polyreactivity
17,QVQLVESGGGLVQAGGSLRLSCAASGITFDLYAMGRYRQAPGKERELVAASTYYADSVKGRFTISRDNAKNTVYLQMNSLKPEDTAVYFCNTREPVTYDYWGQGTQVTVSS,high polyreactivity
18,QVQLVESGGGLVQAGGSLRLSCAASGITFDLYDMGWYRQAPGKERELVAAITDADSTYYADSVKGRFTISRDNAKNTVYLQMNSLKPADTAVYYCAADFFYSVYSGHYDYWGQGTQVTVSS,low polyreactivity
19,QVQLVESGGGLVQAGGSLRLSCAASGITFDRNVMGWYRKSPGKETELVAAISKSGGRTYYADSVKGRFTISRDIAKNTVYLQMNSLKTEDTAVYDCNADFYSRKSLHQYDYWGQGTQVTVSS,high polyreactivity
20,QVQLVESGGGLVQAGGSLRLSCAASGITFDRYAMAWYRHAPGKERELVAAITSSGGRTYYADSVKGRFTISRDNAKNTVYLQMNSLKPEDTAVYYCNTPWQNRADSHRDYWGQGTQVTVSS,high polyreactivity
21,QVQLVESGGGLVQAGGSLRLSCAASGITFDSNAMGWYRQAPGKERELVAVISSSGGSTNYADSVKGRFTISRDNAKNTVYLQMKSLKPEDTAVYYCAADYRFYYTRWEYSFNYWGQGTQVTVSS,high polyreactivity
